Measured values: patent publication US20250270343A1 (Alector, published 2025)
Substitutions are numbered along the chain they refer to.

T1: full-length untagged human GPNMB expressed on cells (human, UniProt Q14956 23-572)
T1 sequence: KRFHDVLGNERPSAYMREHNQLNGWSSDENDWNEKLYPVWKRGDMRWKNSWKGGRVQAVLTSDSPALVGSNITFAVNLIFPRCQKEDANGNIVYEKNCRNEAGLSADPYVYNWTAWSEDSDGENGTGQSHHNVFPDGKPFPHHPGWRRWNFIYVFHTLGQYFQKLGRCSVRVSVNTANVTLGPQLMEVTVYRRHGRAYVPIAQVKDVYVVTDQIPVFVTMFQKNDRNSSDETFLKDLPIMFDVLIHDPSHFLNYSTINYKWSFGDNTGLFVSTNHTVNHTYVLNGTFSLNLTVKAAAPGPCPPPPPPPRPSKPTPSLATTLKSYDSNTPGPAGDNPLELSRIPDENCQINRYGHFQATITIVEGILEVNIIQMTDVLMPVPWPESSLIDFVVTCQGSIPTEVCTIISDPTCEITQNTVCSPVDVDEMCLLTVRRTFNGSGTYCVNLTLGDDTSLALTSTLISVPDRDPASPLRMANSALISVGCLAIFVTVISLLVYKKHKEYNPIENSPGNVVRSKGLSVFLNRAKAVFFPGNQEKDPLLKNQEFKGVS

T2: soluble mouse GPNMB-Fc polypeptide (mouse IgG2A Fc) (mouse, UniProt Q99P91 23-502)
T2 construct: extracellular domain; bought (R&D System); also called moGPNMB-Fc; mGPNMB-Fc; not shown: Fc region of mouse IgG2A
T2 sequence (looked up): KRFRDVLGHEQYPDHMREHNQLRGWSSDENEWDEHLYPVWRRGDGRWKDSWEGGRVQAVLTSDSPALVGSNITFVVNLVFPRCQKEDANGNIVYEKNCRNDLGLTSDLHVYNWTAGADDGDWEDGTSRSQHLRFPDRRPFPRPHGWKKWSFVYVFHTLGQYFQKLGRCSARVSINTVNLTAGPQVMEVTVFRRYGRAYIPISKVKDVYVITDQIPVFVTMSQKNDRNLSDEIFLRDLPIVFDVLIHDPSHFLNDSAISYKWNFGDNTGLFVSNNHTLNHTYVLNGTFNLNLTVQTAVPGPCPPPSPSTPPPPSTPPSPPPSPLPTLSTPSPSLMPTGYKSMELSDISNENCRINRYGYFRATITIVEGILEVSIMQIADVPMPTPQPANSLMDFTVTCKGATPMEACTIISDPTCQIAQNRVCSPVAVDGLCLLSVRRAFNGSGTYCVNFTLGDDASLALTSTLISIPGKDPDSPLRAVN

T3: soluble cynomolgus GPNMB (recombinant extracellular domain) (cynomolgus, UniProt Q14956 23-499 (human entry), limits assumed)
T3 chain: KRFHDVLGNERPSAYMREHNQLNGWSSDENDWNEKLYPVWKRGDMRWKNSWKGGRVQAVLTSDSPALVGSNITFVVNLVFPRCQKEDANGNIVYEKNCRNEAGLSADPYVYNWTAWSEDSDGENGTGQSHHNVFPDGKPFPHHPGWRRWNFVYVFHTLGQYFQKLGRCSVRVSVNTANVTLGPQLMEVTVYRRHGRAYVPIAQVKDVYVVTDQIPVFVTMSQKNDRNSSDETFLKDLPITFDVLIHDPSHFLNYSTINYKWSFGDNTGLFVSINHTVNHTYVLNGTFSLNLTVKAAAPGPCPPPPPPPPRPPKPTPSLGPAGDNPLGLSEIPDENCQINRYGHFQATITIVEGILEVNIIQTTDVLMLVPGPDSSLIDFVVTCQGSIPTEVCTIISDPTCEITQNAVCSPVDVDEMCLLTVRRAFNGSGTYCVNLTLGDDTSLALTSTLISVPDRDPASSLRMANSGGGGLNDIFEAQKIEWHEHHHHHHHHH

B1: anti-GPNMB antibody GPN-37 (antibody, human IgG1, V domains shown)
VH: EVQLVESGGGLVQPGRSLKLSCAASGFTFSSKSGMAWVRQAPTKGLEWVASISNGGGDTYYRDSVKGRFTISRDNAKNTQYLQMDSLRPEDTATYYCARHRDYGYDAYFDYWGQGVMVTVSS
VL: DIQMTQSPASLSASLGETVTIECLASEDIYSSLAWYQQKPGKSPQLLIYDASSLQDGVPSRFSGSESGTQYSLEINSLQSEDAATYFCQQHHDYPYTFGAGTKLELK
notes: chimeric
B2: anti-GPNMB antibody GPN-52 (antibody, human IgG1, V domains shown)
VH: DVQLQESGPGLVKPSQTVFLTCTVTGISITTGNYRWSWIRQFPGNKLEWIGYIYYSGTITYNPSLTSRITITRDTPKNEFFLEMNSLTAEDTATYYCARDLTHWYFDVWGTGTTVTVSS
VL: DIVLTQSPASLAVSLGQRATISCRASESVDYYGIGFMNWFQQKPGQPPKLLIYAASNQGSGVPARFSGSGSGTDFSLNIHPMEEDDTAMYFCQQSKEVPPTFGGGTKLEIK
notes: chimeric
B3: anti-GPNMB antibody GPN-61 (antibody, human IgG1, V domains shown)
VH: B2 VH with I69T, E79Q, N85S, Y96F, T102R
VL: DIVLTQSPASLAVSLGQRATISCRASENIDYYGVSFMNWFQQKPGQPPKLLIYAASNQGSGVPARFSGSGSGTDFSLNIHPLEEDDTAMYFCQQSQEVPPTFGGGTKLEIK
notes: chimeric
B4: anti-GPNMB antibody GPN-65 (antibody, human IgG1, V domains shown)
VH: QLQLQQSGTEVVKPGASVKIPCKASGYAFSSYWMNWVKQRPGKGLEWIGQIYPGDGDTNDNGKFEGKATLTVDKSSNTAYIQLSSLTSEDSAVYFCARSPLHLRGSMDYWGQGTSVTVSS
VL: SIVMTQTPKFLLVSAGDRVTITCKASQSVSNDVAWFQQKPGQSPELLIYSASNRYTGVPDRFTGSGYGTDFTFTISTVQAEDLAVYFCQQNYYSPFTFGGGTRLEIK
notes: chimeric
B5: anti-GPNMB antibody GPN-43 (antibody, human IgG1, V domains shown)
VH: EVQLQQSGPELVKPGASVKISCKASGYTFTDYYMNWVRQSHGKSLEWIGDINPYHGGSTYNQKIKVKATLTVDKSSSTAYMELRSLTSEDSAVYYCARNWPYFDYWGQGTTLTVSS
VL: DIQMTQSPASLSASVGETVTITCRASENIYSFLVWYQQKQGKSPQLLVYNAKTLAEGVPSRFSGSGSGTQFSLKISSLQPEDFGSYYCQHHFGTPPYTFGGGTKLEIK
notes: chimeric
B6: anti-GPNMB antibody GPN-48 (antibody, human IgG1, V domains shown)
VH: QVQLQQSGPELVKPGASVKLSCRASGYGFSSFWMNWVKQRPGKGLEWIGRIYPGKGDTLYNGKFKDKATLTADESSSTAYMQLSSLTSEDSAVYFCARSIYYYDYWYFDVWDTGTTVTVSS
VL: DIVMTQSHKFMSTSVGDRVNITCKASQDVNSAIAWYQQKPGQSPKLLIYSASYRFIGVPDRFTGSGSGTGFTFTISSVQAEDLAVYYCQQHYTTPLTFGAGTKLELK
notes: chimeric
B7: anti-GPNMB antibody GPN-35 (antibody, human IgG1, V domains shown)
VH: EVQLVESGGGSVRPGRSLKLSCAAAGFTFSDYYMTWVRQAPTKGLEWVASINHDGGGTYYRDSVKGRFTISRDNARSSLYLQMDSLRSEDTGTYYCTTRAGWHWGQGVMVTVSS
VL: DIQMTQSPASLSASLGETVSIECLASEDIYNYLTWYQQKPGKSPQVLIYSASGLQDGVPSRFSGSGSGRQYSLKINGLESEDAATYFCLQDSEYPLTFGSGTKLEIK
notes: chimeric
B8: anti-GPNMB antibody GPN-83 (antibody, V domains shown)
VH: QVQLQESGPGLVKPSETLSLTCTVSGISITTGNYRWSWIRQPPGKGLEWIGYIDYSGTITYNPSLKSRVTITRDTSKNQFSLELSSVTAADTAVYYCARDLTHWYFDVWGQGTLVTVSS
VL: DIVMTQSPDSLAVSLGERATINCKSSRSVDYYGIGFVNWYQQKPGQPPKLLIYATSIQGSGVPDRFSGSGSGTDFTLTISSLQAEDVAVYYCQQQKEVPPTFGGGTKVEIK
B9: anti-GPNMB antibody GPN-86 (antibody, V domains shown)
VH: B8 VH
VL: B8 VL with V37L, I57K
B10: anti-GPNMB antibody GPN-85 (antibody, V domains shown)
VH: B8 VH with S67Q
VL: B8 VL with Y32F, V37L, I57H
B11: anti-GPNMB antibody GPN-84 (antibody, V domains shown)
VH: B8 VH with F106Y
VL: B8 VL
B12: anti-GPNMB antibody GPN-88 (antibody, V domains shown)
VH: B8 VH
VL: B8 VL with V37L, I57H, E97H
B13: anti-GPNMB antibody GPN-91 (antibody, V domains shown)
VH: B8 VH
VL: B8 VL with V37L, I57H, V98R
B14: anti-GPNMB antibody GPN-90 (antibody, V domains shown)
VH: B8 VH with S67Q
VL: B8 VL with V37L, I57H
B15: anti-GPNMB antibody GPN-87 (antibody, V domains shown)
VH: B8 VH with F106Y
VL: B8 VL with V37L, I57K
B16: anti-GPNMB antibody GPN-89 (antibody, V domains shown)
VH: B8 VH with F106Y
VL: B8 VL with V37L, I57H
B17: anti-GPNMB antibody GPN-42 (antibody, human IgG1, V domains shown)
VH: DVKLVESGEDLVKPGGSLKLSCAASGFTFSSYAMSWVRQTPEKRLEWVAYISSGGDYIYYADTVKGRFTISRDNARNTLYLQMSSLKSEDTAMYYCTRDRYYDYDVRDYYTMDYWGQGTSVTVSS
VL: DVMMTQTPLSLPVSLGDQASISCRSSQSLVHSNGNTYLHWFLQKPGQSPKLLIFRVSNRFSGVPDRFSGRGSGTDFTLKISRVEAEDLGVYFCSQTTHVPRTFGGGTTLEIK
notes: chimeric

Molecular target: T1, full-length untagged human GPNMB …
Experiment: cell-based or functional assay

IC50 (read off the curve) of the loss of cell surface GPNMB (MFI), internalization assay on human macrophages | Binder
~2 nM | B1
~2 nM | B2
~2 nM | B3
~2 nM | B4

Molecular target: T2, soluble mouse GPNMB-Fc polypeptide …
Experiment: FACS, blocking of moGPNMB-Fc binding to SVEC4-10 cells
Description: (§1) Purified full-length anti-GPNMB antibodies of the present disclosure were evaluated for their ability to block binding of moGPNMB-Fc to SVEC4-10 cells to determine the ligand blocking potency of each anti-GPNMB monoclonal antibody. Briefly, 2 μg/mL moGPNMB-Fc (mouse IgG2A Fc) diluted in binding buffer was pre-complexed with increasing concentrations of anti-GPNMB antibody of the present disclosure or human IgG1 isotype control antibody in 96-well plates. Subsequently, 100,000 SVEC4-10 cells were added per well and incubated on ice for 30 minutes. Soluble moGPNMB-Fc bound to cell surface was detected with fluorescent anti-mouse IgG2A secondary antibody and measured on FACSCanto. (FIG. 5A and FIG. 5B) IC50 values (for antibodies that block moGPNMB-Fc cell binding) and EC50 values (for antibodies that enhance moGPNMB-Fc cell binding) based on changes in MFI values were calculated (average+standard error) for each anti-GPNMB antibody and listed in Table 6. In Table 6, NA indicates no activity. […] In all cases, certain anti-GPNMB antibodies of the present disclosure blocked soluble GPNMB binding to cells, while other anti-GPNMB antibodies of the present disclosure enhanced soluble GPNMB binding to cells.

IC50 | Binder
5.37 nM | B5
1.2 nM | B6
1.17 nM | B7
1 nM | B2
0.77 nM | B3

Molecular target: T3, soluble cynomolgus GPNMB (recombinant …)
Experiment: SPR Biacore, IgG captured

Kd | koff | kon | Binder
8.1 nM | 0.0014 s⁻¹ | 170000 M⁻¹ s⁻¹ | B8
5.5 nM | 0.0011 s⁻¹ | 190000 M⁻¹ s⁻¹ | B9
1.4 nM | 0.00021 s⁻¹ | 150000 M⁻¹ s⁻¹ | B10
10.3 nM | 0.0019 s⁻¹ | 180000 M⁻¹ s⁻¹ | B11
3.7 nM | 0.00061 s⁻¹ | 160000 M⁻¹ s⁻¹ | B12
3.6 nM | 0.00052 s⁻¹ | 150000 M⁻¹ s⁻¹ | B13
3.2 nM | 0.00051 s⁻¹ | 160000 M⁻¹ s⁻¹ | B14
6.2 nM | 0.0012 s⁻¹ | 190000 M⁻¹ s⁻¹ | B15
3.3 nM | 0.00055 s⁻¹ | 170000 M⁻¹ s⁻¹ | B16

Molecular target: T2, soluble mouse GPNMB-Fc polypeptide …
Experiment: FACS, enhancing of moGPNMB-Fc binding to SVEC4-10 cells
Description: as §1

EC50 | Binder
1.19 nM | B17
4.27 nM | B4
